Paper PMC7035229 (Acta Neuropathologica, 2019)

Legend:
[1] = target: T1, soluble aggregates of tau (STAs) (human, UniProt P10636-8 1-441); test: ELISA; conditions: both partners purified
T1 construct: also called soluble Tau aggregates; SPAs (as a member of the group)

[2] = target: T2, soluble aggregates of Aβ_(1–42) (SBAs) (human, UniProt P05067 672-713); test: ELISA; conditions: both partners purified
T2 construct: also called soluble Aβ aggregates; SPAs (as a member of the group)

T1 sequence (P10636 other isoform, or with tags, fused parts or gaps): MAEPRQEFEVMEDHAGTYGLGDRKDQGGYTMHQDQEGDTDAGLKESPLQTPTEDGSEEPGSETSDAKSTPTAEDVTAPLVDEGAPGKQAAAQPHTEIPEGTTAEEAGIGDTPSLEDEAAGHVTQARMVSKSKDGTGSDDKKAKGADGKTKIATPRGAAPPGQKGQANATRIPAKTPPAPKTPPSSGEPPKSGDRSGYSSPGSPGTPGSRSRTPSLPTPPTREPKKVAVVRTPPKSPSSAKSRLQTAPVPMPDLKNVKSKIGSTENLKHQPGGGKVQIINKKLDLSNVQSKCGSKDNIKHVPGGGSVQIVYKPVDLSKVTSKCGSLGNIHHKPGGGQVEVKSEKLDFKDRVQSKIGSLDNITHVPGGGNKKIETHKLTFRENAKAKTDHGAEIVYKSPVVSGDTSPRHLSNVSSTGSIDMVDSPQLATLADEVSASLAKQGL

B1: recombinant murine prion protein PrP_(23–231) (domain or fragment)
chain: not shown
notes: also called full-length PrP
- binding result [1]: binds
- binding result [2]: binds
